The results in this text go back to US20110008841A1.

In this assay the target is chimera L. As to the kind of experiment: Bio-Plex titration on bead-captured chimera; cell bold and boxed = binding lost.

B1: AMH26/AML26 (antibody, IgG2, V domains shown)
VH: QVQLVESGGGLVKPGGSLRLSCAASGFTFSDYYMSWIRQAPGKGLEWVSYISSSGSTIYYADSVKGRFTISRDNAKNSLYLQMNSLRAEDTAVYYCARDRTYYFGSGSYEGMDVWGQGTTVTVSS
VL: EILMTQSPATLSVSPGERATLSCRASQSVYSNLAWYQQKPGQAPRLLISGASTRATGIPARFSGSGSGTEFTLTISSLQSEDFAVYYCQQYYNWPWTFGQGTKVEIK
As for B1, the EC50 cell marked as binding lost although the number is below wild type was found to be 6 pM.
